Laboratory results from CN116041515A (NANJING IASO BIOTHERAPEUTICS TECH CO LTD, dated 2023).

T1: Recombinant biotinylated Human BAFF-R Protein, Kactus BAF-HM40RB (human, UniProt Q96RJ3 1-78, biotinylated)
T1 construct: Bought; also called Kactus BAFF-R-his-Bio; Kactus BAFFR-his bio; not shown: his tag and biotin label
T1 sequence (looked up): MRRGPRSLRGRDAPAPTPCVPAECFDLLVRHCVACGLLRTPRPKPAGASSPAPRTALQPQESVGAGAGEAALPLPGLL

T2: Recombinant biotinylated Human CD19 Protein, Kactus CD2-HE121 (human, UniProt P15391 20-291, biotinylated)
T2 construct: Unrelated control antigen; also called Kactus-CD19-Fc; not shown: Fc by the short name
T2 sequence (looked up): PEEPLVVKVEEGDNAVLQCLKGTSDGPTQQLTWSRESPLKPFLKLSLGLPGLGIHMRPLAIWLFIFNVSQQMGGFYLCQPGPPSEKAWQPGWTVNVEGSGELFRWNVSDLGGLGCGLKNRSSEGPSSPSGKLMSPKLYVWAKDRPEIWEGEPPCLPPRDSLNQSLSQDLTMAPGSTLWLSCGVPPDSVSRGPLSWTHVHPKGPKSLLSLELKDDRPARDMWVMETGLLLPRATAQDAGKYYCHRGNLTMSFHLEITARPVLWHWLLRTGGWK

T3: Biotinylated Human CD27 Ligand, HIS, Avitag, ACRObiosystem CDL-H82Q9 (human, UniProt P32970 39-193, limits assumed, biotinylated)
T3 construct: Unrelated control antigen; also called ACRO-CD70-his; Acro-CD70-his; not shown: HIS tag and Avitag
T3 sequence (looked up): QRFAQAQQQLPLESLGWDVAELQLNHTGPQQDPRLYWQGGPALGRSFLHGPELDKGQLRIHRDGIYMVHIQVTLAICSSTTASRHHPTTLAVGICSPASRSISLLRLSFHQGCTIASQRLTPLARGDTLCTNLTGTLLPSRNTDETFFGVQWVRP


Experiments:
[1] = biological target: T4, Streptavidin, Pierce 21125 (UniProt P22629 37-163, limits assumed); experiment: ELISA with purified IgG-form antibody
T4 construct: Control protein coated on the plate; also called SA; Strepavidin
T4 sequence (P22629 37-163 limits assumed): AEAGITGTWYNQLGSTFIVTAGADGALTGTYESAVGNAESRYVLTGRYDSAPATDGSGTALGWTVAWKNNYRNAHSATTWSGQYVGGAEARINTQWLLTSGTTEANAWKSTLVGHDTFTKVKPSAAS

[2] = biological target: T5, human-IL10-his-Bio, Kactus IL1-HM410B (human, UniProt P22301 19-178, biotinylated); experiment: ELISA with purified IgG-form antibody
T5 construct: Unrelated control antigen; also called Kactus-IL10-Bio-his; not shown: his tag and biotin label
T5 sequence (P22301 19-178): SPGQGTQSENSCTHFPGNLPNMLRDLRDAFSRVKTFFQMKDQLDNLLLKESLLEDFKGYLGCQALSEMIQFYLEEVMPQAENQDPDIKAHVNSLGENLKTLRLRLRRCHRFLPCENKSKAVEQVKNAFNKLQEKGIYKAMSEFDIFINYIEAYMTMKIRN

[3] = biological target: T1, Recombinant biotinylated Human BAFF-R …; experiment: BLI, IgG on the sensor, antigen 100 to 6.25 nM, 1:1 model
[4] = biological target: T2, Recombinant biotinylated Human CD19 …; experiment: phage ELISA
[5] = biological target: T3, Biotinylated Human CD27 Ligand, HIS, …; experiment: phage ELISA
[6] = biological target: T4, Streptavidin, Pierce 21125; experiment: phage ELISA

Binder	binding result [1]	binding result [2]	Kd [3] [nM]	koff [3] [s⁻¹]	kon [3] [M⁻¹ s⁻¹]	binding result [4]	binding result [5]	binding result [6]
Clone 10 IgG (Fc fusion, also called anti-BAFF-R IgG; not shown: human IgG4 Fc) QSALTQPASVSGSPGQSITISCTGTSSDVGGYNYVSWYQQHPGKAPKLMIYEVSNRPSGVSNRFSGSKSGNTASLTISGLQAEDEADYYCSSYTSSSTYVFGTGTKVTVLGSRGGGGSGGGGSGGGGSLEQITLKESGPTLVKPTQTLTLTCTFSGFSLSTSGVGVGWIRQPPGKALEWLALIYWDDDKRYSPSLKSRLTITKDTSKNQVVLTMTNMDPVDTATYYCARYAGQYSGMWPWDYWGQGTLVTVSS	no binding	no binding	0.762	8.72e-05	114000	–	–	–
Clone 10 (phage-displayed scFv monoclonal) (scFv, the phage coat protein fusion is not described; also called #10号克隆) scFv: QSALTQPASVSGSPGQSITISCTGTSSDVGGYNYVSWYQQHPGKAPKLMIYEVSNRPSGVSNRFSGSKSGNTASLTISGLQAEDEADYYCSSYTSSSTYVFGTGTKVTVLGSRGGGGSGGGGSGGGGSLEQITLKESGPTLVKPTQTLTLTCTFSGFSLSTSGVGVGWIRQPPGKALEWLALIYWDDDKRYSPSLKSRLTITKDTSKNQVVLTMTNMDPVDTATYYCARYAGQYSGMWPWDYWGQGTLVTVSS	–	–	–	–	–	no binding	no binding	no binding
